Assay results published in PMC8023661, “Engineering of Ancestors as a Tool to Elucidate Structure, Mechanism, and Specificity of Extant Terpene Cyclase” (Journal of the American Chemical Society, 2021).

What was measured:
SvS-A2 [1] = target: T1, SvS-A2 (synthetic construct, UniProt Z9I7L2B0V8, A89H/A224I); assay: Malachite Green assay; GC-FID competition experiment; assay type: biochemical; settings: 60 µM each FPP and GGPP, ca. 400 nM enzyme, 30 °C, 3 h; library variants carry Ala89His
T1 construct: homodimer; first resolved N-terminal residue Asp09
T1 sequence (Z9I7L2B0V8 1-361 A89H/A224I): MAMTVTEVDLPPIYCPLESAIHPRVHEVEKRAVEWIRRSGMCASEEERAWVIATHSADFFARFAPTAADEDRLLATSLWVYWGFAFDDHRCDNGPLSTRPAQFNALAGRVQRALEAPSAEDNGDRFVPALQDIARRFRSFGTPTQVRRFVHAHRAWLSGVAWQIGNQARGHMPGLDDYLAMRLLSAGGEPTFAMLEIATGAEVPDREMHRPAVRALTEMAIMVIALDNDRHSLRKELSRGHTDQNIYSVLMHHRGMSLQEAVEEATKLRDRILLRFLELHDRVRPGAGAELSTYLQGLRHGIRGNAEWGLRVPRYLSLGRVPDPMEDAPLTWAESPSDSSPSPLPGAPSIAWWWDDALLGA

SvS-WT = target: T2, SvS-WT (Streptomyces violens, UniProt P0DPK6); assay: in vitro product formation, GC; assay type: biochemical; settings: 2 µM enzyme, 3 h
T2 construct: extant wild-type enzyme, expressed in E. coli BL21(DE3), purified and desalted; dimeric in solution
T2 sequence (P0DPK6 1-359): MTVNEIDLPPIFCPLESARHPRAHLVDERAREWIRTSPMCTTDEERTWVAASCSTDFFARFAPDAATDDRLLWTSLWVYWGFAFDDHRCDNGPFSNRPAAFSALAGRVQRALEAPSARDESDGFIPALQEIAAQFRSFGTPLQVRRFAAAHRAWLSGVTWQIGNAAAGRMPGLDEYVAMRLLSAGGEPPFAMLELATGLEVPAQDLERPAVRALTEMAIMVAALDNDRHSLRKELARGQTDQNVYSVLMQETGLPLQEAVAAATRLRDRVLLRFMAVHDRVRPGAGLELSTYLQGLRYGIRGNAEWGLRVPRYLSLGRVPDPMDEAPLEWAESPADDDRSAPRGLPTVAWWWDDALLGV

SvS-A2 [2] = target: T3, SvS-A2 (synthetic construct, UniProt Z9I7L2B0V8, A89H/W156Y); assay: Malachite Green assay; GC-FID competition experiment; assay type: biochemical; settings: 60 µM each FPP and GGPP, ca. 400 nM enzyme, 30 °C, 3 h; library variants carry Ala89His
T3 construct: homodimer; first resolved N-terminal residue Asp09
T3 sequence (Z9I7L2B0V8 1-361 A89H/W156Y): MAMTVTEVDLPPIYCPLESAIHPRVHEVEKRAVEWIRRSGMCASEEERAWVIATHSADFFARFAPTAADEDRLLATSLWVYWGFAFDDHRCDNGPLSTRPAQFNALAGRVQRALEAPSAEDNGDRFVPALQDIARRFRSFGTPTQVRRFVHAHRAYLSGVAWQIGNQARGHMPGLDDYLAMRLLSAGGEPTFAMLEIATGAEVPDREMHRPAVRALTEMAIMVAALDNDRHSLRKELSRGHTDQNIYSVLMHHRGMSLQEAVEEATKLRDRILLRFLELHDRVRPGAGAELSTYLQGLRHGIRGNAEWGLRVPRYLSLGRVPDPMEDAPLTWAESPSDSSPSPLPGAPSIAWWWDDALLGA

[3] = target: spiroviolene synthase (SvS) from Streptomyces violens, extant enzyme (Streptomyces violens); assay: SEC; size exclusion chromatography of the enzyme in solution; conditions in the Supporting Methods (not shown)
[4] = substrate: CC(C)=CCC/C(C)=C/CC/C(C)=C/CC/C(C)=C/COP(=O)(O)OP(=O)(O)O; assay: initial rates of spiroviolene formation, cooperative fit; assay type: biochemical, synthetic construct; settings: 0.5 µM enzyme, Hill coefficient fit
Excerpt: initial rates of spiroviolene formation, cooperative fit on SvS-A2 | The KM value for GGPP reported herein is twice as high as previously reported

[5] = substrate: CC(C)=CCC/C(C)=C/CC/C(C)=C/CO[P@@](=O)(O)OP(=O)(O)O; assay: initial rates of hedycaryol formation, Michaelis-Menten fit; assay type: biochemical, synthetic construct; settings: 0.5 µM enzyme

Molecule: CC(C)=CCC/C(C)=C/CC/C(C)=C/COP(=O)(O)OP(=O)(O)O [FPP]
- Malachite Green assay; GC-FID competition experiment (SvS-A2 [1]): Ala224Ile (group IV) reverses substrate preference of the reconstructed ancestral enzyme
- in vitro product formation, GC (SvS-WT; 60 µM FPP, 50 mM Tris-HCl pH 7.4, 30 °C): the extant enzyme in fact showed higher activity with FPP than GGPP

Molecule: CC(C)=CCC/C(C)=C/CC/C(C)=C/CC/C(C)=C/COP(=O)(O)OP(=O)(O)O [GGPP]
- Malachite Green assay; GC-FID competition experiment (SvS-A2 [2]): A Trp156Tyr exchange (Group III) results in a highly active and diterpene specific SvS-A2 variant
- in vitro product formation, GC (SvS-WT; 60 µM GGPP, 30 °C): both enzymes accepted FPP and GGPP as substrates

Molecule: spiroviolene synthase (SvS) from Streptomyces violens, extant enzyme
- stoichiometry N [3]: 2

B1: SvS-A2 (synthetic construct) (protein)
chain: MAMTVTEVDLPPIYCPLESAIHPRVHEVEKRAVEWIRRSGMCASEEERAWVIATHSADFFARFAPTAADEDRLLATSLWVYWGFAFDDARCDNGPLSTRPAQFNALAGRVQRALEAPSAEDNGDRFVPALQDIARRFRSFGTPTQVRRFVHAHRAWLSGVAWQIGNQARGHMPGLDDYLAMRLLSAGGEPTFAMLEIATGAEVPDREMHRPAVRALTEMAIMVAALDNDRHSLRKELSRGHTDQNIYSVLMHHRGMSLQEAVEEATKLRDRILLRFLELHDRVRPGAGAELSTYLQGLRHGIRGNAEWGLRVPRYLSLGRVPDPMEDAPLTWAESPSDSSPSPLPGAPSIAWWWDDALLGA
notes: homodimer; first resolved N-terminal residue Asp09
- Km [4]: 49 ± 6 µM
- kcat [4]: 5.8 ± 0.6 × 10^-3 s^-1
- Km [5]: 28 ± 11 µM
- kcat [5]: 0.3 ± 0.04 × 10^-3 s^-1
